Consider 9 molecules from EP3766894A1 (Ecole Polytechnique Federale De Lausanne (EPFL) EPFL-TTO, dated 2021).

Positions of bridges follow the written chain, without caps; N, C: chain ends. Non-standard residues stand in square brackets, D forms with d. Primed or numbered codes have the meaning given here. Chains are numbered I, II in the order given. No end group written: not given here. *: point of attachment. Palmitoyl = CCCCCCCCCCCCCCCC(=O)*; Nle = CCCC[C@H](N)C(=O)O; PEG2″ = not defined here

The target in assay [1] is T1, human serum albumin (HSA) (human, UniProt P02768 25-609). In words: fluorescence polarization, dilution series of human serum.
Assay [2] deals with T2, human Kallikrein-related peptidase 5 (hKLK5) (human, UniProt Q9Y337 67-293, limits assumed).
T2 construct: Active protease in substrate-based activity assays; also called stratum corneum tryptic enzyme (SCTE)
T2 sequence (Q9Y337 67-293 limits assumed): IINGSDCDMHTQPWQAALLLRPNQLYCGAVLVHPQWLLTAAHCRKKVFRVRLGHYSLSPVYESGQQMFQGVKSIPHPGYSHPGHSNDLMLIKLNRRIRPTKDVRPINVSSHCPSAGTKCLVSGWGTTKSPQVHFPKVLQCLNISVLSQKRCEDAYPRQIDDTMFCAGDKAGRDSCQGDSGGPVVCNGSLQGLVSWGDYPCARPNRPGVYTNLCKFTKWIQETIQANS
In words: activity assay in the presence of 25 µM HSA.

In assay [3] the target is T3, mouse serum albumin (MSA) (mouse, UniProt P07724 25-608).
T3 construct: also called mouse albumin
T3 sequence (P07724 25-608 limits assumed): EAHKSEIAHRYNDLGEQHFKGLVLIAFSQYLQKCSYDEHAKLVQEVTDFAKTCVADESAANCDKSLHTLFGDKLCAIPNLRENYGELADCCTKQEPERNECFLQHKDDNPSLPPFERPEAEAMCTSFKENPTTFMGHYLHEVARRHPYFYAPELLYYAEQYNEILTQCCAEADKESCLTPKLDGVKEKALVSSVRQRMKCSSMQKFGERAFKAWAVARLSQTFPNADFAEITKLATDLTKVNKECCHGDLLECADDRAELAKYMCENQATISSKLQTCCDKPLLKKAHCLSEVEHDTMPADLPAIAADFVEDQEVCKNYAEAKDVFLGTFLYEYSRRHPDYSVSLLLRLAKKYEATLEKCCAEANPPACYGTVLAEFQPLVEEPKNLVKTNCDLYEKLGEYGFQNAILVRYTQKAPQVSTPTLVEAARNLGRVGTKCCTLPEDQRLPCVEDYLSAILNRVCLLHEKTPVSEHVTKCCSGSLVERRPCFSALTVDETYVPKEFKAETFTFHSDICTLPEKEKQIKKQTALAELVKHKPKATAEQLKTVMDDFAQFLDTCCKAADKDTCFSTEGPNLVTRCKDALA
In words: fluorescence polarization, dilution series of mouse albumin in PBS. Background: Fluorescence polarisation rises when a labelled molecule tumbles more slowly, as on binding a larger partner.

For assay [4], the target named is T1, human serum albumin (HSA). In words: fluorescence polarization.
Assay [5] deals with T4, human Kallikrein-related peptidase 7 (hKLK7) (human, UniProt P49862 30-253).
T4 construct: Active protease in substrate-based activity assays; also called stratum corneum chymotryptic enzyme (SCCE)
T4 sequence (P49862 30-253 limits assumed): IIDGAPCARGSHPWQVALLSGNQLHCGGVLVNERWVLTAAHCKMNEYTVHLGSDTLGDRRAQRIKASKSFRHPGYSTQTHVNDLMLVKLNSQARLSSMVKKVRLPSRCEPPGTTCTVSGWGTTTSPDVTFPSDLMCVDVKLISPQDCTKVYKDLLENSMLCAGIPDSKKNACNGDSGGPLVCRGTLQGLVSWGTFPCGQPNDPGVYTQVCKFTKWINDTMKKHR
In words: substrate-based activity assay.

A further assay deals with mouse KLK5 (mKLK5) (mouse). Put plainly: substrate-based activity assay, same conditions as for hKLK.
A further assay concerns the target mouse KLK7 (mKLK7) (mouse, UniProt Q91VE3 26-249). Described as above.
The target in assay [6] is T4, human Kallikrein-related peptidase 7 …. Put plainly: activity assay in the presence of 25 µM HSA.
In the next assay the target is T5, FXIIa (Factor XIIa) (human, UniProt P00748 373-615, limits assumed).
T5 sequence (looked up): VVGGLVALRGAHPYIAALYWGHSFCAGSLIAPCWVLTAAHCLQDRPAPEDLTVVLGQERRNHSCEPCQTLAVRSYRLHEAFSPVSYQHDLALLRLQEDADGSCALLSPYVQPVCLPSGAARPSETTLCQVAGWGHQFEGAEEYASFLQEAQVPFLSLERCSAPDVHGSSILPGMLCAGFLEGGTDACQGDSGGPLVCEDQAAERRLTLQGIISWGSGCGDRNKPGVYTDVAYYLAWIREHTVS
In words: substrate-based activity assay.

The target of assay [7] is T2, human Kallikrein-related peptidase 5 …. Put plainly: substrate-based activity assay.

Chain of mouse KLK7 (mKLK7) (Q91VE3 26-249 limits assumed): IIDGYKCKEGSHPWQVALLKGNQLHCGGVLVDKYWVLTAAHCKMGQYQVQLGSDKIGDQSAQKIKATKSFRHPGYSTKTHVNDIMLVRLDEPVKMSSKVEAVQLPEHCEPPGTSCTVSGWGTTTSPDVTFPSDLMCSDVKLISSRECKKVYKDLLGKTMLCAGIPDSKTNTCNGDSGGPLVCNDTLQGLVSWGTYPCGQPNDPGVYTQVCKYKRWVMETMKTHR

B1: N-terminal albumin tag conjugate of KLK5 inhibitor 035 (peptide)
peptide 1: GCTRQYPC
peptide 2: {5(6)‑carboxyfluorescein}-EYEK(Palmitoyl)EYE
modifications: bridge I:2-I:8; not fully specified (C-terminus, bridges); also: chain 2 C-terminus joined via PEG2 to chain 1 N-terminus, linker to a chain's N/C-terminus via PEG2
On to B1, for which the binding result in assay [1] is “binds”. Moreover, in assay [2], the Ki (commonly a measure of affinity in units of concentration, obtained from inhibition or displacement) stood at 23 nM and the “fold loss in activity against the cyclic peptide alone” value was determined as 10 fold.

With {fluorescein-PEG2″}-EYEK(Palmitoyl)EYE (also called fluorescein-tag) [albumin tag (F-tag)], in assay [3], the Kd (usually the constant that tells how readily two partners part at equilibrium) turned out to be 4200 nM.

B2: peptide 282 (albumin tag variant, biphenyl-3-carboxylic acid) (peptide)
peptide: EYEKEYEK
modifications: not fully specified; N-terminal cap based on peptide 266 with biphenyl-3-carboxylic acid; Lys 4 side chain acylated with palmitic acid; 5(6)-FAM on the side chain of the additional C-terminal Lys
B2 had a Kd in [4] of 132 nM. In other words, the sub-micromolar range.

PCLYLARCS (bridge 2-8; not fully specified (bridges)) [peptide 096 (lead KLK7 inhibitor)] came in with a Ki in assay [5] of 16 nM.

B3: KLK5 inhibitor 035-tag (C-terminal albumin tag conjugate of 035) (peptide)
peptide 1: GCTRQYPCGKG
peptide 2: EYEK(Palmitoyl)EYE
modifications: bridge I:2-I:8; not fully specified (N-terminus, bridges); also: N-terminal fluorescein via PEG2, chain not given here, chain 2 tag joined via PEG2 to Lys10 side chain of chain 1
Consider B3, for which the Kd in assay [1] turned out to be 119 nM. Besides, the IC50 (usually the midpoint of a concentration-inhibition curve) with mouse KLK5 (mKLK5) worked out at 2 nM. The Ki in assay [2] was 1.2 nM.

B4: peptide 114 with norleucine in position five (peptide)
peptide: PCLY[Nle]ARC
modifications: linker 2-8 via 1,3‑dibromoacetone
notes: No peptide number is printed for the untagged norleucine derivative
The molecule B4 returned a Ki in assay [5] of 7 nM.

B5: peptide 284 (albumin tag variant, 2-naphthalenecarboxylic acid) (peptide)
peptide: EYEKEYEK
modifications: not fully specified; N-terminal cap based on peptide 266 with 2-naphthalenecarboxylic acid; Lys 4 side chain acylated with palmitic acid; 5(6)-FAM on the side chain of the additional C-terminal Lys
For the molecule B5, the Kd in assay [4] is 147 nM.

B6: KLK7 inhibitor 096-tag (C-terminal albumin tag conjugate of 096) (peptide)
peptide 1: PCLYLARCSGKG
peptide 2: EYEK(Palmitoyl)EYE
modifications: bridge I:2-I:8; not fully specified (N-terminus, bridges); also: N-terminal fluorescein via PEG2, chain not given here, chain 2 tag joined via PEG2 to Lys11 side chain of chain 1
On to B6, for which the Kd in assay [1] was determined as 164 nM. The molecule also registered an IC50 in the assay with mouse KLK7 (mKLK7) of 20 nM. Further, in assay [6], the Ki was determined as 32 nM.

GCTRQYPC (linker 2-8 via 1,3‑dibromoacetone) [peptide 035 (lead KLK5 inhibitor)]: the Ki with FXIIa (Factor XIIa) was 40000 nM; in assay [7], 2.2 nM.
